We go through 2 molecules from patent US20180208648A1 (SCHOLAR ROCK, published 2018).

Positions count from the first letter of the chain named.

Test [1] addresses T1, human proGDF11 (human, UniProt O95390 25-407, biotinylated (NHS-PEG4-Biotin), site not stated).
T1 sequence: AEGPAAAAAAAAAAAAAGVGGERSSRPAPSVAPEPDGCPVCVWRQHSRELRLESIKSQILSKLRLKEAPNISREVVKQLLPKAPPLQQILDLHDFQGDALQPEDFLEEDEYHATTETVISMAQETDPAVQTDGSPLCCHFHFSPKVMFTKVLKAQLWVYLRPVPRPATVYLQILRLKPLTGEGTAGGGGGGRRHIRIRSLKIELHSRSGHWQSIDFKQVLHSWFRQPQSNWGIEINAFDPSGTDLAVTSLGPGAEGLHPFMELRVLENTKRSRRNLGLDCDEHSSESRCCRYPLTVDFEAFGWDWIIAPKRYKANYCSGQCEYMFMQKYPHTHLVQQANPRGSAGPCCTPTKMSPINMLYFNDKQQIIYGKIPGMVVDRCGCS
In words: cell-based or functional assay.

A further test concerns the target T2, murine proGDF11 (mouse, UniProt Q9Z1W4 25-405, biotinylated, site not stated).
T2 sequence: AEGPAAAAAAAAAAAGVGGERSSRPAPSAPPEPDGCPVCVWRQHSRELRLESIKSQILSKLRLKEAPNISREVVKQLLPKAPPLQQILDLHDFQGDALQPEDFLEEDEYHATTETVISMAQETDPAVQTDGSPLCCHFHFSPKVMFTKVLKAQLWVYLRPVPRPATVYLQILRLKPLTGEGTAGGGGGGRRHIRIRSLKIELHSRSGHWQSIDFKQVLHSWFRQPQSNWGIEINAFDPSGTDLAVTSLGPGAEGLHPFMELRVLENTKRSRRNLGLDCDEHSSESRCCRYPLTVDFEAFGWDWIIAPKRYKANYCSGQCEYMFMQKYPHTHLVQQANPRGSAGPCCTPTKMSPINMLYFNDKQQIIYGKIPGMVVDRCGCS
In words: cell-based or functional assay.

The next test addresses T3, human latent GDF11 (human, UniProt O95390 25-407, biotinylated, site not stated).
T3 construct: also called hu latent GDF11
T3 sequence: T1 sequence
Put plainly: BLI (ForteBio Octet). (BLI is a label-free optical method that tracks binding on a fibre tip over time.)

Test [2] addresses T1, human proGDF11. Put plainly: BLI (ForteBio Octet).
Another test concerns the target T4, human proGDF8 (human, UniProt O14793 24-375, biotinylated, site not stated).
T4 construct: also called hu proGDF8; human proMyostatin
T4 sequence: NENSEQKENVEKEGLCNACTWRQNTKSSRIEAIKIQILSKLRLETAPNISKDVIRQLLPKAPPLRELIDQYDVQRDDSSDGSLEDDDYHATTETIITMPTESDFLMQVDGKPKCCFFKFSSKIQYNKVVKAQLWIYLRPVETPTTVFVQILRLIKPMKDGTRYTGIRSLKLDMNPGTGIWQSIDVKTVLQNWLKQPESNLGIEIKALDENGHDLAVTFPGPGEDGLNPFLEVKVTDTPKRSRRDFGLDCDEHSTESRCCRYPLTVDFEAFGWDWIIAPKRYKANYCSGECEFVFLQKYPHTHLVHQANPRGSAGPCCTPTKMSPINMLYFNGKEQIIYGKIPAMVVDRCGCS
Put plainly: BLI (ForteBio Octet QKe), antigen on streptavidin biosensor, antibody in solution.

The target in a further test is T5, human proActivin A (human, UniProt P08476 21-426, biotinylated (immobilized on streptavidin biosensors), site not stated).
T5 construct: also called human Activin A; Inhibin-beta A pro-protein
T5 sequence: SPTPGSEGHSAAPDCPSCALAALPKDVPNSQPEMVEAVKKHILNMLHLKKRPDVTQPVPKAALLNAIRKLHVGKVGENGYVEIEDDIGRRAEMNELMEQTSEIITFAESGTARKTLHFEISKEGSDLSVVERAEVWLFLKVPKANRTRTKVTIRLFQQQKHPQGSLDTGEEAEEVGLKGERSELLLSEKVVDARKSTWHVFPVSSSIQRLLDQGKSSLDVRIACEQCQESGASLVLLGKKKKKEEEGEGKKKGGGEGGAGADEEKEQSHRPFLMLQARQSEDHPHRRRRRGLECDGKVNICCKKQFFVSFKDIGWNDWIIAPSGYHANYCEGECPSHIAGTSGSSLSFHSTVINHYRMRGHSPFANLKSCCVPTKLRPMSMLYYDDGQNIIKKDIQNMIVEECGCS
The test is described as above.

In another test the target is T6, human latent GDF8 (human, UniProt O14793 24-375, biotinylated (immobilized on streptavidin biosensors), site not stated).
T6 construct: also called human latent Myostatin
T6 sequence: T4 sequence
The description is as above.

B1: GDF11 Inh-2 (antibody, V domains shown)
VH: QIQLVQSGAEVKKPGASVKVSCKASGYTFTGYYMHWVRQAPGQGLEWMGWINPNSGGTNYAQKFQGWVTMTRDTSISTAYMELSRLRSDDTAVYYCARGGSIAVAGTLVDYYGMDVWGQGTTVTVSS
VL: DIQMTQSPSSLSASVGDRVTITCQASQDISNYLNWYQQKPGKAPKLLIYDASNLETGVPSRFSGSGSGTDFTLTISSLQPEDVATYYCQKYSTAPLTFGGGTKVEIKR
notes: also called Clone GDF11 Inh-2
As for B1, the “Human proGDF11 % Inhibition (proGDF11 activation assay, CAGA luciferase reporter in 293T cells)” value with human proGDF11 [1] stood at 100%. In the test with murine proGDF11, the “Murine proGDF11 % inhibition (proGDF11 activation assay, CAGA luciferase reporter in 293T cells)” value was found to be 95%. Besides, the values for the Kd with human latent GDF11 and with human proGDF11 [2] were 270 pM and 910 pM, respectively. Further, the binding result in the test with human proGDF8, with human proActivin A and with human latent GDF8 was “no binding (tested: 50 µg/mL)” in each case.

B2: GDF11 Inh-4 (antibody, V domains shown)
VH: QVQLVQSGAEVKKPGASVKVSCKASGYTFTSYGISWVRQAPGQGLEWMGWISAYNGNTNYAQKLQGRVTMTTDTSTSTAYMELRSLRSDDTAVYYCARTPPLWFGEYGAFDIWGQGAMVTVSS
VL: B1 VL with E81D, V83F, K90Q, Y91S, S92Y, A94T, L96I, G100Q, K103R, V104L
notes: also called Clone GDF11 Inh-4
Consider B2, for which the “Human proGDF11 % Inhibition (proGDF11 activation assay, CAGA luciferase reporter in 293T cells)” value with human proGDF11 [1] turned out to be 94%. For the same molecule, the “Murine proGDF11 % inhibition (proGDF11 activation assay, CAGA luciferase reporter in 293T cells)” value with murine proGDF11 turned out to be 87%. The Kd – broadly, the constant that tells how readily two partners part at equilibrium – with human latent GDF11 was 310 pM; with human proGDF11 [2], 1080 pM. For the same molecule, the binding result with human proGDF8, with human proActivin A and with human latent GDF8 was “no binding (tested: 50 µg/mL)” throughout.
